B6: EagT6 Q58A (natural protein)
chain: MTLYRLHEADLEIPDAWQDQSINIFKLPASGPAREASFVISRDASQGDAPFADYVARALENAEKQLPGFKLHKRWDINIHGHAAVLLDYQWQREGRDLMLRQVFIERRPAVLITTLTTTPADLPHHEPAWKQAMQTLVPRPTPS
notes: also called EagT6-TMD Q58A (in complex)

The target of data set [1] is Tse6(1–61) (Pseudomonas aeruginosa) (UniProt Q9I739). Kind of data set: GdmCl denaturation followed by steady-state tryptophan fluorescence (unfolding free energy of the co-purified complex against the apo chaperone); 1 μM protein dimer, 25 mM Tris pH 7.0, GdmCl series, room temperature, 1 h equilibration; KTMD calculated by Eq. (7) from ΔG° of unfolding extrapolated to 0 M denaturant.

Data set [2] deals with SciW (Salmonella Typhimurium). Kind of data set: dynamic light scattering; 50 mM Tris pH 8.0, 250 mM NaCl, 1 mM BME, 25 °C, 0.5 mg/ml protein.
In data set [3] the target is Rhs1(1–59) (Salmonella Typhimurium). Kind of data set: stopped-flow fluorescence unfolding kinetics; co-purified complex or apo chaperone, 10 μM diluted 1/10 into GdmCl in 50 mM Tris, 250 mM NaCl, 1 mM BME, 20 °C; rate extrapolated to 0 M GdmCl.
For data set [4], the target named is SciW I25F (Salmonella Typhimurium). Put plainly: dynamic light scattering; 50 mM Tris pH 8.0, 250 mM NaCl, 1 mM BME, 25 °C, 0.5 mg/ml protein.
Data set [5] has as its target SciW Q58A (Salmonella Typhimurium). The description is as above.
The target in data set [6] is SciW Q106A (Salmonella Typhimurium). Described as above.
Data set [7] has as its target SciW S41A (Salmonella Typhimurium). The description is as above.
Data set [8] concerns the molecule itself. The description is as above.
The target of the data set “EagT6 Q58A” is B6. Kind of data set: GdmCl denaturation followed by steady-state tryptophan fluorescence (unfolding free energy of the co-purified complex against the apo chaperone); 1 μM protein dimer, 25 mM Tris pH 7.0, GdmCl series, room temperature, 1 h equilibration; KTMD calculated by Eq. (7) from ΔG° of unfolding extrapolated to 0 M denaturant. The note with it: both partners purified.

Take “EagT6 L66A (from UniProt Q9I738) (natural protein)”: in data set [1], the Ka is less than 1e+06 M⁻¹.

On to SciW (natural protein), for which the stoichiometry N in data set [2] was found to be 2. Besides, the lifetime of the complex in data set [3] was 15 h. As to SciW I25F (natural protein), the stoichiometry N in data set [4] was 2. SciW L66A (natural protein): in data set [3], the lifetime of the complex is 2 h. Turning to SciW Q58A (natural protein), the stoichiometry N in [5] came out at 2. Moreover, in data set [3], the lifetime of the complex was 0.267 h. For the molecule SciW Q106A (natural protein), in [6], the stoichiometry N amounted to 2. Take SciW S41A (natural protein): in data set [7], the stoichiometry N is 2.

B1: EagT6 I24F (natural protein)
chain: MTLYRLHEADLEIPDAWQDQSINFFKLPASGPAREASFVISRDASQGDAPFADYVARQLENAEKQLPGFKLHKRWDINIHGHAAVLLDYQWQREGRDLMLRQVFIERRPAVLITTLTTTPADLPHHEPAWKQAMQTLVPRPTPS
For B1, the “stoichiometry N” value in data set [8] came to 2.

B2: EagT6 L66A (natural protein)
chain: MTLYRLHEADLEIPDAWQDQSINIFKLPASGPAREASFVISRDASQGDAPFADYVARQLENAEKQAPGFKLHKRWDINIHGHAAVLLDYQWQREGRDLMLRQVFIERRPAVLITTLTTTPADLPHHEPAWKQAMQTLVPRPTPS
notes: also called EagT6-TMD L66A (in complex)
Consider B2, for which, in data set [8], the “stoichiometry N” value stood at 2.

B3: EagT6 Q102A (natural protein)
chain: MTLYRLHEADLEIPDAWQDQSINIFKLPASGPAREASFVISRDASQGDAPFADYVARQLENAEKQLPGFKLHKRWDINIHGHAAVLLDYQWQREGRDLMLRAVFIERRPAVLITTLTTTPADLPHHEPAWKQAMQTLVPRPTPS
As to B3, the “stoichiometry N” value in data set [8] came to 2.

B4: EagT6 S41A (natural protein)
chain: MTLYRLHEADLEIPDAWQDQSINIFKLPASGPAREASFVIARDASQGDAPFADYVARQLENAEKQLPGFKLHKRWDINIHGHAAVLLDYQWQREGRDLMLRQVFIERRPAVLITTLTTTPADLPHHEPAWKQAMQTLVPRPTPS
Take B4: in [8], the “stoichiometry N” value worked out at 2.

B5: Tse6(1–61) (domain or fragment)
chain: MDAQAAARLGDEIAHGFGVAAMVAGAVAGALIGAAVVAATAATGGLAAVILAGSIAAGGLS
notes: not shown: His6, C-terminal, kept
On to B5, for which the Kd in the data set with EagT6 Q58A is approximately 0.03 nM. Turning to B6, the “stoichiometry N” value in [8] was determined as 2.

Values taken from PMC12881460, “Biophysical characterization of Eag chaperones suggests the mechanism of effector transmembrane domain release” (Nature Communications, 2026).
